For two molecules, Kd results are on record in patent publication US20200223938A1 (published 2020).

The test deals with monomeric FcRn (Sinobiological inc., CT009-H08H) (human;, UniProt P55899 24-297; P61769 21-119). Nature of the test: Biacore SPR; pH 6.0. For orientation: SPR reads the build-up and loss of mass on a sensor chip optically.
Chain of monomeric FcRn (Sinobiological inc., CT009-H08H) (P55899 24-297, chain 1 of 2): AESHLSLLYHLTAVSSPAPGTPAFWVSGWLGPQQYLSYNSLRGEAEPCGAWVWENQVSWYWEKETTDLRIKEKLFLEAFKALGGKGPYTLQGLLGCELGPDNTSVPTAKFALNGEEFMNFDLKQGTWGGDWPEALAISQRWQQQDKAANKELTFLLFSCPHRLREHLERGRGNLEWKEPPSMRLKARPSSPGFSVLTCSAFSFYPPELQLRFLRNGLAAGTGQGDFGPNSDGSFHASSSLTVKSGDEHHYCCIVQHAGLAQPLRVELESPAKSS
Chain of monomeric FcRn (Sinobiological inc., CT009-H08H) (P61769 21-119, chain 2 of 2): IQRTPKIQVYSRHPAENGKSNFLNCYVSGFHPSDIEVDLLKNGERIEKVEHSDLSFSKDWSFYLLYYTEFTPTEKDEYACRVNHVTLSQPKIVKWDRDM

B1: EFc88 (protein)
chain: DKTHTCPPCSAPELLGGPSVFLFPPKPKDTLMISRTPEVTCVVVDVSHEDPEVKFNWYVDGVEVHNAKTKPREELYNSTYRVVSVLTVLHQDWLNGKEYMCKVSNKALPAPIEKTISKAKGQPREPQVYTLPPSREELTKNQVSLTCLVKGFYPSDIAVEWESNGQPENNYKTTPPVLDSDGSFILYSKLTVDKSRWQQGNVFSCSVLHEALHNHYTQKSLSLSPGK
By Kd is commonly meant the concentration at which binding is half-saturated. Read a high Kd as a looser complex. Take B1: the affinity, expressed as Kd, was 6.99 nM.

B2: trastuzumab Fc variant EFc82 (antibody)
Fc: DKTHTCPPCQAPELLGGPSVFLYPPEPKDTLMISRTPEVTCVVVDVSHEDPEVKFNWYVDGVEVHNAKTKPREEQYNSTYRVVSVLTVLHQDWLNGKEYKCKVSNKALPAPIEKTISKAKGQPREPQVYTLPPSRDELTKSQVSLTCLVKGFYPSDIAVEWESIGQPENNYKTTPPVLDSDGSFFLYSKLTVDKSRWQQGNVFSCSVLHEALHNHYTQKSLSLSPGK
B2 came in with a Kd of 6.68 nM.
